“Also recorded” adds a separate entry of the source.
Columns and labels:
[1] = target: T1, immobilized CD44-IgG1Fc (Homo sapiens, UniProt P16070); assay: Surface plasmon resonance binding of rhPRG4 to CD44 and competition with HMW HA
T1 construct: purchased R & D systems
Description: Binding of rhPRG4 to CD44-IgG1Fc was investigated using surface plasmon resonance (Biacore T100, GE Healthcare Lifesciences, NJ, USA). Series S chips were functionalized using the human antibody capture kit (GE Life Sciences) and either CD44-IgG1Fc or IgG1FC was allowed to bind to the surface of the functionalized chips in flow cell 1 (Fc1) and flow cell 2 (Fc2), respectively. rhPRG4 was injected at 30 μL/min for 8 min at concentrations of 300, 250, 200, 150, 100 and 50 μg/mL followed by a 10 min dissociation using 0.1M HEPES, 1.5M NaCl, 30 mM EDTA, and 0.5% P20 (GE Life Sciences). The surface of the chip was regenerated at the end of each cycle with 1 min pulse of 3M MgCl2. Each analyte concentration was injected in duplicate. The resulting curves were double referenced (i.e. Fc2-Fc1, followed by subtraction of the 0 μg/mL curve). The binding kinetics and binding affinity were determined by BiaEvaluation software, using 1:1 binding/conformational change model or by steady-state equilibrium, respectively. To study the competition between rhPRG4 and HMW HA in binding to CD44, rhPRG4 was injected at concentrations ranging between 0 and 300 μg/mL as described above. Following the end of dissociation phase, HMW HA was injected at 50 μg/mL (30 μL per min) for 1 min. […]

[2] = tested on: Smad2; assay: phospho-Smad2 immunoblotting; type: cell-based, human; settings: 100 pM TGFβ; 100 μg/mL rhPRG4; 12 h
Description: Cells were washed with PBS to remove all growth media. Appropriate volume of TNTE lysis buffer (50 mM Tris, 150 mM NaCl, 1 mM EDTA, 0.5% [v/v] Triton-X-100) containing protease and phosphatase inhibitors, was added to the cell monolayer and incubated at 4° C. under vigorous shaking for 20 minutes. Lysates were then collected in microcentrifuge tubes and centrifuged at 13,000 g for 10 minutes at 4° C. 5 μL of the lysate were subjected to protein concentration determination using Bradford-based protein assays (Bio-Rad Laboratories, Canada). Lysates were boiled for 3 minutes at 95° C. in dithiothreitol (DTT)-containing Laemmli sample buffer. For immunoprecipitation analyses, lysates were incubated with appropriate antibodies at 4° C. with gentle rocking for 3 h after which immunocomplexes were incubated with Protein G-conjugated agarose beads (UBPBio, USA) at 4° C. with gentle rocking for 3 h. Finally, the beads were washed with TNTE wash buffer (0.1% [v/v] Triton-X-100) and boiled for 5 minutes at 95° C. in dithiothreitol (DTT) containing Laemmli sample buffer. Immunoprecipitates and input lysates were then resolved by sodium dodecyl sulfate-polyacrylamide electrophoresis (SDS-PAGE) and transferred onto a nitrocellulose membrane (Bio-Rad Laboratories, Canada). […] Densitometric analyses were performed using Quantity One software (Bio-Rad Laboratories, Canada).

[3] = tested on: HLE and HLF cells; assay: HCC trans-well migration assay on fibronectin; type: cell-based, human; settings: soluble rhPRG4 25 μg/ml; 16 hours
From the text: Stable CD44 silencing: HLE and HLF cell lines were transduced with lentiviral particles carrying control non-targeting (V), or specific CD44-targeting shRNA sequences (A to D), and selected with puromycin dihydrochloride (Thermo Fisher Scientific) to obtain stable CD44 silencing, according to manufacturer instructions (OriGene Technologies, Inc., Rockville, Md. 20850, USA). Control-shRNA sequence (V) and CD44-shRNA sequence B were used in all the experiments involving CD44 downregulation.
Trans-well migration assay: The assay was performed as previously described. (Dituri et al., PLoS One 2013. doi:10.1371/journal.pone.0067109). Briefly, 15,000 cells were loaded onto the top chamber of the trans-well, whose membrane was previously coated with fibronectin on the lower surface, and left to migrate for 16 hours in the presence/absence of rhPRG4 (25 μg/ml) diluted in serum-free DMEM medium (+0.5% BSA) in the lower chamber. The cells were then paraformaldehyde-fixed and stained with crystal violet. Five fields/membrane were captured and the number of cells/field was measured.

rhPRG4: full-length recombinant human PRG4 (lubricin) glycoprotein produced by CHO-M cells; residues 25-1404 of SEQ ID NO:1
Kd ([1]; based on a rhPRG4 molecular weight of 240 KDa, read-out: apparent Kd): ~38 nM | effect on binding of HMW HA to recombinant CD44 ([1]; rhPRG4 0-300 μg/mL, then HMW HA 50 μg/mL): interfered with binding of HMW HA | TGFβ-induced phosphorylation of Smad2 [2]: did not appreciably alter TGFβ-induced phosphorylation of Smad2; also recorded: did not reduce TGFβ-induced Smad2 phosphorylation | migration of cells on fibronectin [3]: impairs the migration
